Results reported in IntAct's records for PubMed 29039417.

B1: Protein PTHB1 (Homo sapiens), Q3SYG4 (parent)
chain: MSLFKARDWWSTILGDKEEFDQGCLCLANVDNSGNGQDKIIVGSFMGYLRIFSPHPAKTGDGAQAEDLLLEVDLRDPVLQVEVGKFVSGTEMLHLAVLHSRKLCVYSVSGTLGNVEHGNQCQMKLMYEHNLQRTACNMTYGSFGGVKGRDLICIQSMDGMLMVFEQESYAFGRFLPGFLLPGPLAYSSRTDSFLTVSSCQQVESYKYQVLAFATDADKRQETEQQKLGSGKRLVVDWTLNIGEQALDICIVSFNQSASSVFVLGERNFFCLKDNGQIRFMKKLDWSPSCFLPYCSVSEGTINTLIGNHNNMLHIYQDVTLKWATQLPHIPVAVRVGCLHDLKGVIVTLSDDGHLQCSYLGTDPSLFQAPNVQSRELNYDELDVEMKELQKIIKDVNKSQGVWPMTEREDDLNVSVVVSPNFDSVSQATDVEVGTDLVPSVTVKVTLQNRVILQKAKLSVYVQPPLELTCDQFTFEFMTPDLTRTVSFSVYLKRSYTPSELEGNAVVSYSRPTDRNPDGIPRVIQCKFRLPLKLICLPGQPSKTASHKITIDTNKSPVSLLSLFPGFASQSDDDQVNVMGFHFLGGARITVLASKTSQRYRIQSEQFEDLWLITNELILRLQEYFEKQGVKDFACSFSGSIPLQEYFELIDHHFELRINGEKLEELLSERAVQFRAIQRRLLARFKDKTPAPLQHLDTLLDGTYKQVIALADAVEENQGNLFQSFTRLKSATHLVILLIALWQKLSADQVAILEAAFLPLQEDTQELGWEETVDAAISHLLKTCLSKSSKEQALNLNSQLNIPKDTSQLKKHITLLCDRLSKGGRLCLSTDAAAPQTMVMPGGCTTIPESDLEERSVEQDSTELFTNHRHLTAETPRPEVSPLQGVSE
partner: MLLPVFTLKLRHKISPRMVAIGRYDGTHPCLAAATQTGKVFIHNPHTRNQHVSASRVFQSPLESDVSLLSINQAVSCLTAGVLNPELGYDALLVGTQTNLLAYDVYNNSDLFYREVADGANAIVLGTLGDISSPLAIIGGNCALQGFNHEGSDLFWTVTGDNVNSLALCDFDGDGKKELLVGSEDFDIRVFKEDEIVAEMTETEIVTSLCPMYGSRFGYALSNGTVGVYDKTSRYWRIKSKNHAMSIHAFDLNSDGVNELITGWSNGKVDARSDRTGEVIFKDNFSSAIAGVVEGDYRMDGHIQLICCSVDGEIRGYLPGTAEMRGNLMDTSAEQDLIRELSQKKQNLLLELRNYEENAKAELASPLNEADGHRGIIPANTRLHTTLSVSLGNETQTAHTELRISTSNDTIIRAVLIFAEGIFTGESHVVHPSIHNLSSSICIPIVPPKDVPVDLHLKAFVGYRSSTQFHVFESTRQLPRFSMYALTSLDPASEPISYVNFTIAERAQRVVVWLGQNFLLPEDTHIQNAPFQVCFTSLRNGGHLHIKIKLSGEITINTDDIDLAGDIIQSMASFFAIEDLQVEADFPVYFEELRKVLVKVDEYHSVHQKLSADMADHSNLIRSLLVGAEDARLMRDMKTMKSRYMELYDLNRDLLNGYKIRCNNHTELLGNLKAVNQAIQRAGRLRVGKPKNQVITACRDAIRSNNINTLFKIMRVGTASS

Variants of: B1
Details: with bbs2_human BBS2, Q9BXC9

Variant	effect of a mutation on the interaction
S439E	with no effect
S439K	with no effect
S439A	with no effect
D470E	with no effect
D470N	disrupting interaction strength
D470A	with no effect
D470K	with no effect
V450K	with no effect
V450A	with no effect
V450E	with no effect
E408A	with no effect
E408K	with no effect
Q462Y	disrupting interaction strength
Q462A	with no effect
Q462E	with no effect
Q462T	disrupting interaction strength
Q462K	with no effect
L452A	with no effect
L452E	with no effect
L452K	with no effect
F421A	with no effect
F421K	with no effect
F421E	with no effect
V442E	with no effect

Variant	effect of a mutation on the interaction
V442A	with no effect
V442K	with no effect
V444K	with no effect
V444A	with no effect
V444E	with no effect
V461E	with no effect
V461A	with no effect
V461K	with no effect
A427E	with no effect
A427K	with no effect
C469E	with no effect
C469K	with no effect
C469A	with no effect
D422E	with no effect
D422K	with no effect
D422A	with no effect
P464K	with no effect
P464E	with no effect
P464A	with no effect
E466K	with no effect
E466A	with no effect
Q471A	with no effect
D409E	with no effect
D409K	with no effect

Variant	effect of a mutation on the interaction
D409A	with no effect
T445E	with no effect
T445A	with no effect
T445K	with no effect
Q426A	with no effect
Q426K	with no effect
Q426E	with no effect
P419E	with no effect
P419K	with no effect
P419A	with no effect
V459E	with no effect
V459K	with no effect
V459A	with no effect
G433E	with no effect
G433K	with no effect
G433A	with no effect
S418A	with no effect
S418K	with no effect
S418E	with no effect
D410E	with no effect
D410K	with no effect
D410A	with no effect
S414E	with no effect
S414A	with no effect

Variant	effect of a mutation on the interaction
S414K	with no effect
T428A	with no effect
T428E	with no effect
T428K	with no effect
D429E	with no effect
D429K	with no effect
D429A	with no effect
K454A	with no effect
K454E	with no effect
L436A	with no effect
L436E	with no effect
L436K	with no effect
S425E	with no effect
S425K	with no effect
S425A	with no effect
Y460E	with no effect
Y460K	with no effect
Y460A	with no effect
N412E	with no effect
N412K	with no effect
N412A	with no effect
